From the nanobody polyreactivity screen of Harvey et al. (2022)

Assay: yeast display, Sf9 membrane polyspecificity reagent, FACS + sequencing; frameworks hold sequencing errors
Outline: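 Galactose induction of a Saccharomyces cerevisiae BJ5465 synthetic nanobody display library ran 36–48 hours. The cells were then stained for 1 hour at 4 °C with 10% biotinylated, detergent-solubilized Sf9 membrane reagent, pulled down on streptavidin microbeads and FACS-sorted into low and high (top ~1%) gates on expression and reagent-binding fluorescence. Labels for polyreactivity follow the gate of origin.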

Sequence | polyreactivity (PSR sort gate)
QVQLVESGGGLVQEGGSLRLSCAASGSTFYNYAMGLYRQAPGKERELVAAITSSGGSTYYADSVKGRFTISRDYAKNTVYLQMNSLKPEDTAVYYCNADDGYGQVHSISNYEMDYWGQGTQVTVSS | low polyreactivity
QVQLVESGGGLVQEGGSLRLSCAASGSTFYYYAMGWYRQAPGKERELVAAISSSGSTYYADSVKGRFTISRDNAKNTVYLQMISLNPEDTAVFYCNADSRTAGLNSEYDYWGQGTQVTVSS | low polyreactivity
QVQLVESGGGLVQEGGSLRLSCAASGSTSRKYTMGWYRQAPGKERELVATISWSGGSTNYADSVKGRFTISRDNAKNNVYLQMNSLIPEDTAVYYCNAYVSPRYRGTRYYYWGQVTQVTVSS | high polyreactivity
QVQLVESGGGLVQEGGSLRLSCAASGYIFVRYAMGWYRQAPGKEREFVAAISSSGGSTRYADSVKGRFTISRDNAKYTVYLQMHRLKPEDTPVYYCAATSVARNGSPMYYWGQGTLVTVSS | high polyreactivity
QVQLVESGGGLVQEGGSLRLSCASSGFIFEDYAKGWYRQARGKERELVAAMRSNDDSTYYADSVKGRFTISRDNAKNSVYFQMNSLKPEDTAVYYCAAATYGTRLRRYYYWGQGSQVTVSS | high polyreactivity
QVQLVESGGGLVQEGGSLRLSCASSGSTFRYNVMGWYRQAPGKERELVAAITRRGSRTYYADSVKGRFTISRDNAKNTVYLHMNSLKPADTAVYDCNKNSLSVPANDDYWGQGTQVTVSS | high polyreactivity
QVQLVESGGGLVQEGGSLSLICAASGRIYTPYAMGSYRQAPGKERELVAVIRDGSTYYADSVKGRFTISRDNAKNTVYLQMNSLKPADTAVYDCRYDIWVWWSGAYDYWGQCTQVTVSS | low polyreactivity
QVQLVESGGGLVQGGGSLGLSCAASGRIFPVNAMGWYRQAPGKERELVAAISTTGARTYYADSVKGRFTISRDNAKNTVYLQMNSLKPEDTAVYYCAAKQFSVTLSNYWGQGTQVTVSS | low polyreactivity
QVQLVESGGGLVQGGGSLRLSCAASGINFGLYTMGWYRQAPGKERELVAAISDSGGRTYYADSVKGRFTISRDNAQNTVYLQMNSLKPEDTSVYYCAAEFWYVWEYNYWGQGTQVTVSS | high polyreactivity
QVQLVESGGGLVQGGGSLRLSCAASGNILRIYAMGWYRQAPGKEREFVAAIRQSDGRTYYADSVKGRFTISRDNAKNTVYLQMNSLKPEDTSVYYCAADVYQEYDYWGQGTQVTVSS | high polyreactivity
QVQLVESGGGLVQGGGSLRLSCAASGRTFQTNVMGWYRPAPGKERELVAAITLSGGSTNYADSVKGRFTISRDNAKNTVYVQMNSLKPEDTAVYYCNAERRYRHQWTPHYEYDYWGQGTQVSVSS | low polyreactivity
QVQLVESGGGLVQGGGSLRLSCAASGRTFYWNAMGWYRQAPGKERELVAAIRWRGGNTYYADSVKGRFTISRDIEKNTVYLQMNSLKPEDSAVYYCAAAGGNTEMGYWGQGSQVTVSS | high polyreactivity
QVQLVESGGGLVQGGGSLRLSCAASGSIFPGNAMGCYRQAPGKERELLAVIDFSGASTYYADSLKGRFTISRDNAKNTVYLQMKSLKPEATAVYWGQGTQVTVSS | low polyreactivity
QVQLVESGGGLVQGGGTLRLSCAASGSILSRNTMGWYRQAPGKEREFVADISKGDSTYYADSVKGRFTISRDNAKNTGYLQMNILKPVDTAVYYCAVDSWRRAMWYYGRYGYWGQGTEVTVSS | low polyreactivity
QVQLVESGGGLVQPGGRLRLSCEASGIFTDYAMGCYRQEPGKERELVAAISWRGGSTYFADSVKGRFTISRDNAKKTVYLQMHSLKPEDTAVFYCAAGVRGGGGRYRYGYWGQGTQVTVSS | high polyreactivity
QVQLVESGGGLVQPGGSLLLRGAASGSIYYRNVMGWYRPAPGKERELVAAISSGGNTYYADSVKGRFTISRDNAKNTVYLQMNSLKPVDTAVYYCNAEYEGLSFGWYEYWYDYWGQGTQVTVSS | high polyreactivity
QVQLVESGGGLVQPGGSLRLSCAASGFIFYWYAMGWYRQAPGKERELVAAISYDTGSTYYADSVKGRFTISRDNAKITVYFQINSLKPEDTAVYYCAADASWRVYTGYYWGQGTQVTVSS | high polyreactivity
QVQLVESGGGLVQPGGSLRLSCAASGFTFIRNVMGWYRQAPGKERELVARITYSSGSTYYADSVKGRFTISRDNAKNTVYLQMNSLKPEDTAVYYCAVRLYSYLYNPFNYWGQGTQVTVSS | high polyreactivity
QVQLVESGGGLVQPGGSLRLSCAASGGIFLGNAMGGYRQAPGKERELVAGITWSGGRTYYADSVKGRFTISRDNAKNTVYLQMTSLKPEDTAVYDCNKDTPGTRFYGIYSYDYWGQGTQVTVSS | low polyreactivity
QVQLVESGGGLVQPGGSLRLSCAASGIIFSFYTIGWDRQEPGKEMELVAAISSSGGRTFYADSVKGRFTISRDNAKNTVYLQMNSLKPEDTAVYYCYAAHTREYYWGQGTQVTLSS | high polyreactivity
QVQLVESGGGLVQPGGSLRLSCAASGRIFGWYAMGWYRQAPGKERELVAAITWSGTSTYYADSVKGRFTISRDNAKNTVYLQMNSLKPEDTAVYYCAADSLRGSAPTYYSTLEYWGQGTQVTVSS | low polyreactivity
QVQLVESGGGLVQPGGSLRLSCAASGRISYVYTMGWYRQAPGKERELVAAISKSGGSTSYADSVKGRFTISRDNAKNTVYLQMNSLKPEDTAVYYCAAGRYYYTYAYDHWGQGTQVTLSS | high polyreactivity

Sequence | polyreactivity (PSR sort gate)
QVQLVESGGGLVQPGGSLRLSCAASGRTFGDYVMGWDREAPGKERELVAVITYRGGSTYYADSVKGRFTISRDNAKNTVHLQMNSLKPEDTAVYYCAAAARAGLKRYYYWGQGTQVTVSS | high polyreactivity
QVQLVESGGGLVQPGGSLRLSCAASGRTFRTNAMGWSRQEPGKERELVAAISTGGGITNYADSVKGRFTISRDNAKNTVYLQMNCLKPEDTAVYYCAARLAYNAIGYYYWGQGTQVTVSS | low polyreactivity
QVQLVESGGGLVQPGGSLRLSCAASGRTFTGYTMGWYRQAPGKERELVAAIRWSGDRTYYADSVKGRFTISRDNAKNTVYLQMNSLKPEDTAVYYCAAARYVYGKFVGFDYWGQGTQVNVSS | high polyreactivity
QVQLVESGGGLVQPGGSLRLSCAASGRTFVPYAMGWYRQAPGKEREFVAVITWGGGSTYYADSVKGRFTISRDNAKNTVYLQMNSLKPEDTAVYYCDARVYYHYDYWGQGTQVTVSS | high polyreactivity
QVQLVESGGGLVQPGGSLRLSCAASGSIFTPNAMGWYRPAPGKERELVAAISSSSDRTYYADSVKGRFTISRDNAKNTVYLQMNSLKPEDTAVYYCAALSKTRGGYWGHGTQVTVSS | high polyreactivity
QVQLVESGGGLVQPGGSLRLSCAASGSTFIEYSMGWYRQAPGKERELVATIRGTGSTNYADSVKGRFTISRDNAKNTVYLQMNSLKPEDTAVYYCMKKPDPRWYYWGDYWGQGTQVTVSS | low polyreactivity
QVQLVESGGGLVQSGGSIRLSCAASGSTFDHYTMGWYRQAPGKERELVAAINRIGDSTYYADSVKGRFTISRDNAKNTVYLQMNSLKPEDTAVYDCAARHVPRFNKYGYWGQGTQVNVSS | high polyreactivity
QVQLVESGGGLVQSGGSLRLSCAASGFIFGEYTMGWNRQAPGKEREFVAAISWSGGSTSYADSVKGRFTISRDNAKNTVYLQMNSLKPEDTAVYYCAARYGSDYDYWGQGTQVTVSS | low polyreactivity
QVQLVESGGGLVQSGGSLRLSCAASGFIFRWYAMGWYRQAPGKERELVASIDWSGTRTNYADSVKGRFTISRDNAKNTVYLQMNSLKPEDTAVYYCNAVPTSLGETDYDYWGQGTQVTVSS | low polyreactivity
QVQLVESGGGLVQSGGSLRLSCAASGFTFGGYAMGWYRQAPAKERELVAAISQSGGRTYYADSVKGRFTISRDNAKITVYLQMNSLKPEDTAVYYCAKPSTTYYQRGDYWGQGTQVTVSS | high polyreactivity
QVQLVESGGGLVQSGGSLRLSCAASGFTFPNNAMGWYRLAPGKERELVAAITWSGGSTYADSVKGRFTISRDNAKNTVYLQMNSLKPEETAVYFCNTRGTYLSKTLPSAYDYWGQGTQVTVSS | low polyreactivity
QVQLVESGGGLVQSGGSLRLSCAASGFTFSRYAMGWYRQAPGKERELVAAINWSGGSTYYADSVKGRFTISRDNAKNTVYLQMNSLKPEDTAVYSCAKPAGGSGYDSWGQGTQVTVSS | high polyreactivity
QVQLVESGGGLVQSGGSLRLSCAASGIKFYYNARGWYRPAPGKERELVARITWRAGSTYYADSVKGRFTISRDNAKNTVYLQMNSLKPEDTAVYYCNADHDGLGYYFWGQGTQVTVSS | high polyreactivity
QVQLVESGGGLVQSGGSLRLSCAASGITTRTYAMGWYRQAPGKDRELVAAISDSGDRTYYADSVKGRFTISRDNAKNTVYLQMNSLKPEDTAVYYCAVDAPGPRGEYWGQGTKVTVSS | low polyreactivity
QVQLVESGGGLVQSGGSLRLSCAASGRIFGKYAMGWYRQAPGKERELVARISFSGGTTYYADSVKGRFTISRDNAKNTVYLQMYSLKPEDTAVYYCSARSVWSQRWAYDSWGQGTQVTVSS | high polyreactivity
QVQLVESGGGLVQSGGSLRLSCAASGRTFYHYAMGWYRQAHGKERELVATITRNGGITYYADSVKGRFTISRDNAKNTVYLQMNSLKPEDTAVYYCIKRWGGPIQFDYWGQGTEVTVSS | low polyreactivity
QVQLVESGGGLVQSGGSLRLSCAASGRTFYYYTMGWYRPAPGKVRELVAAIYRVGSTYYADSVKGRFTISRDNAKNTVYLQMNSLKPEDTADYYCNAVLRFGWYWVDYWGQGTQVTVSS | high polyreactivity
QVQLVESGGGLVQSGGSLRLSCAASGSIFSAYAMGWYRQAPGKEREFVAAITRRGGNTYYADSVKGRFTISRDNAQNTVYLQMNSLKPEDSAVYYCAADAGGGPFDYWGQGTQVSVSS | low polyreactivity
QVQLVESGGGLVQSGGSLRLSCAASGSIFSYYAMGWYRQAPGKEREFVAPHSRSGGSTYYADSVKGRFTISRDNGKNTVYLQMKSLKPEDTAVYYCNAYSYSDAGDDGDYWGQGTQVTVSS | low polyreactivity
QVQLVESGGGLVQSGGSLRLSCAASGSILYGYAMGWYRQAPGKERELVAAIRWTGGSTYYADSVKGRFTISRDNAKNTVYLQMNSLKPEDTAVYFCAAEYNLRTYWGDYWGQGTQVTVSS | low polyreactivity
QVQLVESGGGLVQSGGSLRLSCAASGSTFDYNAMGWYRQPPGKERELVAAINSGASTYYADSVKGRFTISRDNAKNTVYLLMNSLKPEDTAVYYCAKDYLYIGDYWGQGTQVTVSS | low polyreactivity
